From US8173600

Biological target: T1, 2-Quinolinylcarbonyl-L-Valinyl-L-Aspartyl (methyl ester)-L-Valinyl-L-Alanyl-L-Aspartyl (methyl ester) 2,6-difluorophenyl ester
T1 chain: VDVAD

B1: human recombinant caspase-7 (protein)
chain: AKPDRSSFVPSLFSKKKKNVTMRSIKTTRDRVPTYQYNMNFEKLGKCIIINNKNFDKVTGMGVRNGTDKDAEALFKCFRSLGFDVIVYNDCSCAKMQDLLKKASEEDHTNAACFACILLSHGEENVIYGKDGVTPIKDLTAHFRGDRCKTLLEKPKLFFIQACRGTELDDGIQADSGPINDTDANPRYKIPVEADFLFAYSTVPGYYSWRSPGRGSWFVQALCSILEEHGKDLEIMQILTRVNDRVARHFESQSDDPHFHEKKQIPCVVSMLTKELYFSQ
For B1, the “in vitro cleavage of Ac-DEVD-AMC by the recombinant caspase” value was “no cross reactivity against other caspases”.

B2: human recombinant caspase-9 (protein)
chain: MDEADRRLLRRCRLRLVEELQVDQLWDALLSRELFRPHMIEDIQRAGSGSRRDQARQLIIDLETRGSQALPLFISCLEDTGQDMLASFLRTNRQAAKLSKPTLENLTPVVLRPEIRKPEVLRPETPRPVDIGSGGFGDVGALESLRGNADLAYILSMEPCGHCLIINNVNFCRESGLRTRTGSNIDCEKLRRRFSSLHFMVEVKGDLTAKKMVLALLELAQQDHGALDCCVVVILSHGCQASHLQFPGAVYGTDGCPVSVEKIVNIFNGTSCPSLGGKPKLFFIQACGGEQKDHGFEVASTSPEDESPGSNPEPDATPFQEGLRTFDQLDAISSLPTPSDIFVSYSTFPGFVSWRDPKSGSWYVETLDDIFEQWAHSEDLQSLLLRVANAVSVKGIYKQMPGCFNFLRKKLFFKTS
In the case of B2, the “in vitro cleavage of Ac-LEHD-AMC by the recombinant caspase” value is reported as “no cross reactivity against other caspases”.

B3: human recombinant caspase-10 (protein)
chain: VKTFLEALPQESWQNKHAGSNGNRATNGAPSLVSRGMQGASANTLNSETSTKRAAVYRMNRNHRGLCVIVNNHSFTSLKDRQGTHKDAEILSHVFQWLGFTVHIHNNVTKVEMEMVLQKQKCNPAHADGDCFVFCILTHGRFGAVYSSDEALIPIREIMSHFTALQCPRLAEKPKLFFIQACQGEEIQPSVSIEADALNPEQAPTSLQDSIPAEADFLLGLATVPGYVSFRHVEEGSWYIQSLCNHLKKLVPRMLKFLEKTMEIRGRKRTVWGAKQISATSLPTAISAQTPRPPMRRWSSVS
In the case of B3, the “in vitro cleavage of Ac-IETD-AMC by the recombinant caspase” value is reported as “no cross reactivity against other caspases”.

B4: human recombinant caspase-3 (protein)
chain: SGISLDNSYKMDYPEMGLCIIINNKNFHKSTGMTSRSGTDVDAANLRETFRNLKYEVRNKNDLTREEIVELMRDVSKEDHSKRSSFVCVLLSHGEEGIIFGTNGPVDLKKITNFFRGDRCRSLTGKPKLFIIQACRGTELDCGIETDSGVDDDMACHKIPVEADFLYAYSTAPGYYSWRNSKDGSWFIQSLCAMLKQYADKLEFMHILTRVNRKVATEFESFSFDATFHAKKQIPCIVSMLTKELYFYH
B4 was tested, and the “in vitro cleavage of Ac-DEVD-AMC by the recombinant caspase” value was “no cross reactivity against other caspases”.

B5: human recombinant caspase-6 (protein)
chain: AFYKREMFDPAEKYKMDHRRRGIALIFNHERFFWHLTLPERRGTCADRDNLTRRFSDLGFEVKCFNDLKAEELLLKIHEVSTVSHADADCFVCVFLSHGEGNHIYAYDAKIEIQTLTGLFKGDKCHSLVGKPKIFIIQACRGNQHDVPVIPLDVVDNQTEKLDTNITEVDAASVYTLPAGADFLMCYSVAEGYYSHRETVNGSWYIQDLCEMLGKYGSSLEFTELLTLVNRKVSQRRVDFCKDPSAIGKKQVPCFASMLTKKLHFFPKSN
With B5 the “in vitro cleavage of Ac-VEID-AMC by the recombinant caspase” value was “no cross reactivity against other caspases”.

B6: caspase-2 in brain of ischemic rat pups (protein)
chain: GPPCLQVKPCTPEFYQAHYQLAYRLQSQPRGLALVMSNVHFTGEKDLEFRSGGDVDHTTLVTLFKLLGYNVHVLYDQTAQEMQEKLQNFAQLPAHRVTDSCIVALLSHGVEGGIYGVDGKLLQLQEVFRLFDNANCPSLQNKPKMFFIQACRGDETDRGVDQQDGKNHAQSPGCEESDAGKEELMKMRLPTRSDMICGYACLKGNAAMRNTKRGSWYIEALTQVFSERACDMHVADMLVKVNALIKEREGYAPGTEFHRCKEMSEYCSTLCQQLYLFPGYPPT
In the case of B6, the “caspase-2 activity (VDVAD-AMC cleavage) and caspase-2 processing (western blot) in brain homogenates” value is reported as “it inhibited caspase-2 activity as well as caspase-2 processing in brain of ischemic rat pups”.

B7: human recombinant caspase-4 (protein)
chain: QISPNKKAHPNMEAGPPESGESTDALKLCPHEEFLRLCKERAEEIYPIKERNNRTRLALIICNTEFDHLPPRNGADFDITGMKELLEGLDYSVDVEENLTARDMESALRAFATRPEHKSSDSTFLVLMSHGILEGICGTVHDEKKPDVLLYDTIFQIFNNRNCLSLKDKPKVIIVQACRGANRGELWVRDSPASLEVASSQSSENLEEDAVYKTHVEKDFIAFCSSTPHNVSWRDSTMGSIFITQLITCFQKYSWCCHLEEVFRKVQQSFETPRAKAQMPTIERLSMTRYFYLFPGN
With B7 the “in vitro cleavage of Ac-WEHD-AMC by the recombinant caspase” value was “no cross reactivity against other caspases”.

B8: human recombinant caspase-8 (protein)
chain: SESQTLDKVYQMKSKPRGYCLIINNHNFAKAREKVPKLHSIRDRNGTHLDAGALTTTFEELHFEIKPHDDCTVEQIYEILKIYQLMDHSNMDCFICCILSHGDKGIIYGTDGQEAPIYELTSQFTGLKCPSLAGKPKVFFIQACQGDNYQKGIPVETDSEEQPYLEMDLSSPQTRYIPDEADFLLGMATVNNCVSYRNPAEGTWYIQSLCQSLRERCPRGDDILTILTEVNYEVSNKDDKKNMGKQMPQPTFTLRKKLVFPSD
With B8 the “in vitro cleavage of Ac-IETD-AMC by the recombinant caspase” value was “no cross reactivity against other caspases”.

B9: human recombinant caspase-1 (protein)
chain: NPAMPTSSGSEGNVKLCSLEEAQRIWKQKSAEIYPIMDKSSRTRLALIICNEEFDSIPRRTGAEVDITGMTMLLQNLGYSVDVKKNLTASDMTTELEAFAHRPEHKTSDSTFLVFMSHGIREGICGKKHSEQVPDILQLNAIFNMLNTKNCPSLKDKPKVIIIQACRGDSPGVVWFKDSVGVSGNLSLPTTEEFEDDAIKKAHIEKDFIAFCSSTPDNVSWRHPTMGSVFIGRLIEHMQEYACSCDVEEIFRKVRFSFEQPDGRAQMPTTERVTLTRCFYLFPGH
For B9, the “in vitro cleavage of Ac-YVAD-AMC by the recombinant caspase” value was “no cross reactivity against other caspases”.

B10: human recombinant caspase-5 (protein)
chain: DQKITSVKPLLQIEAGPPESAESTNILKLCPREEFLRLCKKNHDEIYPIKKREDRRRLALIICNTKFDHLPARNGAHYDIVGMKRLLQGLGYTVVDEKNLTARDMESVLRAFAARPEHKSSDSTFLVLMSHGILEGICGTAHKKKKPDVLLYDTIFQIFNNRNCLSLKDKPKVIIVQACRGEKHGELWVRDSPASLALISSQSSENLEADSVCKIHEEKDFIAFCSSTPHNVSWRDRTRGSIFITELITCFQKYSCCCHLMEIFRKVQKSFEVPQAKAQMPTIERATLTRDFYLFPGN
B10 was tested, and the “in vitro cleavage of Ac-WEHD-AMC by the recombinant caspase” value was “no cross reactivity against other caspases”.
